This is an account of results in article PMC5061367.

Assay [1] concerns the target APOBEC3C I188 (human) (UniProt Q9NRW3). The experiment in a line: SEC; 10 μg of purified enzyme on a 10 mL Superdex 200 column; 50 mM Tris pH 8.0, 200 mM NaCl, 1 mM DTT; masses from a Bio-Rad standard curve; fractions read by SDS-PAGE and Western blot.
Assay [2] shares this target. In words: cross-linking; 0.5 μM protein with 10 μM BS3 in 20 mM Hepes pH 7.5, 150 mM NaCl, 1 mM DTT, 1 hour at 21°C; SDS-PAGE and Western blot with anti-APOBEC3C. Background: A western blot detects proteins with antibodies after separation by electrophoresis.

Usually stoichiometry N stands for the number of molecules, sites or subunits per partner or assembly. “APOBEC3C I188 (from UniProt Q9NRW3 1-190) (enzyme)”: the stoichiometry N in the assay with APOBEC3C I188 (human) [1] and in the assay with APOBEC3C I188 (human) [2] was 2 throughout.
